The record followed here is the supplement of paper PMC10567573.

Sequences and labels used below:
B1: TRIM35 (parent)
chain: WEVQVSPTCPVCKDRASPADLRTN
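Also: lentivirally expressed fusions sorted by FACS into six bins by GFP to DsRed ratio, PSI derived from sequencing read proportions per bin multiplied by bin number.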

In the data set the parent is B1. The data set can be described thus: protein stability index of a GFP-peptide fusion (GPS, HEK-293T) (PSI 1-6); higher = more stable. The note with it: c terminus: a fixed tail appended.
WEVQVSPTCPCCKDRASPADLRTN: the protein stability index was 1.68.
Consider WEVQVSPTCPGCKDRASPADLRTN, for which the protein stability index stood at 2.89.
For WEVQVSPTCPFCKDRASPADLRTN the value was 1.78; for WEVQVSPTCPHCKDRASPADLRTN, 1.96; for WEVQVSPTCPDCKDRASPADLRTN, 3.64.
As for WEVQVSPTCPACKDRASPADLRTN, the protein stability index came to 2.37.
On to WEVQVSPTRPVCKDRASPADLRTN, for which the protein stability index is 4.04.
WEVQVSPTEPVCKDRASPADLRTN: the protein stability index was 4.49.
Turning to WEVQVSPTYPVCKDRASPADLRTN, the protein stability index came to 3.5.
As for WEVQVSPTNPVCKDRASPADLRTN, the protein stability index amounted to 4.34.
With WEVQVSPTDPVCKDRASPADLRTN, the protein stability index was 4.9.
In the case of WEVQVSPTWPVCKDRASPADLRTN, the protein stability index was determined as 2.52.
For WEVQVSPTPPVCKDRASPADLRTN, the protein stability index is 3.11.
As for WEVQVSPTTPVCKDRASPADLRTN, the protein stability index is 3.94.
On to WEVQVSPTMPVCKDRASPADLRTN, for which the protein stability index was found to be 3.15.
The same measure for WEVQVSPTIPVCKDRASPADLRTN: 3.53.
The same measure for WEVQVSPTHPVCKDRASPADLRTN: 3.74.
In the case of WEVQVSPTAPVCKDRASPADLRTN, the protein stability index was 4.38.
As to WEVQVSPTQPVCKDRASPADLRTN, the protein stability index is 4.56.
WEVQVSPTGPVCKDRASPADLRTN: the protein stability index is 3.97.
The same measure for WEVQVSPTKPVCKDRASPADLRTN: 4.72; for WEVQVSPTLPVCKDRASPADLRTN: 1.98; for WEVQVSPTFPVCKDRASPADLRTN: 2.85.
Take WEVQVSPTVPVCKDRASPADLRTN: the protein stability index was 4.11.
As for WEVQVCPTCPVCKDRASPADLRTN, the protein stability index is 2.63.
In the case of WEVQVNPTCPVCKDRASPADLRTN, the protein stability index came to 3.46.
With WEVQVYPTCPVCKDRASPADLRTN, the protein stability index was 2.07.
For WEVQVIPTCPVCKDRASPADLRTN the value was 2.12.
For WEVQVEPTCPVCKDRASPADLRTN the value was 1.71.
With WEVQVLPTCPVCKDRASPADLRTN, the protein stability index turned out to be 2.6.
The same measure for WEVQVDPTCPVCKDRASPADLRTN: 2.84; for WEVQVQPTCPVCKDRASPADLRTN: 2.53.
For WEVQVFPTCPVCKDRASPADLRTN the value was 2.4; for WEVQVAPTCPVCKDRASPADLRTN, 1.87; for WEVQVKPTCPVCKDRASPADLRTN, 1.85.
As to WEVQVPPTCPVCKDRASPADLRTN, the protein stability index was determined as 2.87.
The same measure for WEVQVMPTCPVCKDRASPADLRTN: 1.89; for WEVQVHPTCPVCKDRASPADLRTN: 3.03.
For the variant WEVQVTPTCPVCKDRASPADLRTN, the protein stability index was 2.22.
In the case of WEVQVGPTCPVCKDRASPADLRTN, the protein stability index is 2.54.
For WEVQVRPTCPVCKDRASPADLRTN the value was 2.5; for WEVQVWPTCPVCKDRASPADLRTN, 1.94.
WEVQVSSTCPVCKDRASPADLRTN: the protein stability index is 2.5.
On to WEVQVSRTCPVCKDRASPADLRTN, for which the protein stability index was found to be 2.19.
With WEVQVSQTCPVCKDRASPADLRTN, the protein stability index was found to be 2.43.
The same measure for WEVQVSLTCPVCKDRASPADLRTN: 1.9; for WEVQVSGTCPVCKDRASPADLRTN: 3.03; for WEVQVSNTCPVCKDRASPADLRTN: 1.8.
Turning to WEVQVSVTCPVCKDRASPADLRTN, the protein stability index was 1.32.
The same measure for WEVQVSTTCPVCKDRASPADLRTN: 1.58; for WEVQVSYTCPVCKDRASPADLRTN: 2.31; for WEVQVSMTCPVCKDRASPADLRTN: 1.33.
As to WEVQVSATCPVCKDRASPADLRTN, the protein stability index was found to be 1.72.
Take WEVQVSDTCPVCKDRASPADLRTN: the protein stability index is 2.43.
Consider WEVQVSHTCPVCKDRASPADLRTN, for which the protein stability index turned out to be 2.2.
For the variant WEVQVSWTCPVCKDRASPADLRTN, the protein stability index was determined as 2.58.
WEVQVSITCPVCKDRASPADLRTN: the protein stability index came out at 1.97.
The same measure for WEVQVSPTCQVCKDRASPADLRTN: 3.01; for WEVQVSPTCHVCKDRASPADLRTN: 2.81; for WEVQVSPTCSVCKDRASPADLRTN: 3.32.
As to WEVQVSPTCTVCKDRASPADLRTN, the protein stability index is 2.38.
For the variant WEVQVSPTCWVCKDRASPADLRTN, the protein stability index was 2.51.
In the case of WEVQVSPTCYVCKDRASPADLRTN, the protein stability index was found to be 2.29.
WEVQVSPTCLVCKDRASPADLRTN: the protein stability index was 2.65.
For WEVQVSPTCEVCKDRASPADLRTN the value was 2.23; for WEVQVSPTCVVCKDRASPADLRTN, 2.02.
As to WEVQVSPTCFVCKDRASPADLRTN, the protein stability index was found to be 2.89.
WEVQVSPTCIVCKDRASPADLRTN: the protein stability index was determined as 2.34.
For WEVQVSPTCNVCKDRASPADLRTN the value was 2.58; for WEVQVSPTCCVCKDRASPADLRTN, 3.25; for WEVQVSPTCMVCKDRASPADLRTN, 2.46.
Take WEVQVSPTCRVCKDRASPADLRTN: the protein stability index came out at 2.42.
For WEVQVSPTCAVCKDRASPADLRTN, the protein stability index amounted to 1.25.
Turning to WEVQVSPTCKVCKDRASPADLRTN, the protein stability index stood at 2.79.
Consider WEVQSSPTCPVCKDRASPADLRTN, for which the protein stability index is 2.94.
Turning to WEVQWSPTCPVCKDRASPADLRTN, the protein stability index is 2.4.
Turning to WEVQQSPTCPVCKDRASPADLRTN, the protein stability index was determined as 3.37.
For WEVQTSPTCPVCKDRASPADLRTN the value was 3.03; for WEVQYSPTCPVCKDRASPADLRTN, 2.58.
WEVQVSPKCPVCKDRASPADLRTN: the protein stability index was 2.39.
As for WEVQVSPNCPVCKDRASPADLRTN, the protein stability index was 2.79.
With WEVQVSPVCPVCKDRASPADLRTN, the protein stability index came out at 1.66.
Consider WEVQVSPPCPVCKDRASPADLRTN, for which the protein stability index worked out at 2.92.
Regarding WEVQVSPWCPVCKDRASPADLRTN, the protein stability index is 2.56.
WEVQVSPSCPVCKDRASPADLRTN: the protein stability index is 2.37.
Take WEVQVSPACPVCKDRASPADLRTN: the protein stability index was determined as 3.17.
The same measure for WEVQVSPRCPVCKDRASPADLRTN: 1.7; for WEVQVSPGCPVCKDRASPADLRTN: 2.48.
The same measure for WEVQVSPDCPVCKDRASPADLRTN: 3.42; for WEVQVSPECPVCKDRASPADLRTN: 3.07.
The same measure for WEVQVSPLCPVCKDRASPADLRTN: 1.88; for WEVQVSPICPVCKDRASPADLRTN: 2.
With WEVQVSPFCPVCKDRASPADLRTN, the protein stability index was 1.85.
With WEVQVSPQCPVCKDRASPADLRTN, the protein stability index turned out to be 2.33.
